# Target: natriuretic peptide receptor-B (NPR-B) on human aortic endothelial cells (human) (UniProt P20594)
# Experiment: cell-based or functional assay
# UniProt P20594, sequence (P20594 23-1047): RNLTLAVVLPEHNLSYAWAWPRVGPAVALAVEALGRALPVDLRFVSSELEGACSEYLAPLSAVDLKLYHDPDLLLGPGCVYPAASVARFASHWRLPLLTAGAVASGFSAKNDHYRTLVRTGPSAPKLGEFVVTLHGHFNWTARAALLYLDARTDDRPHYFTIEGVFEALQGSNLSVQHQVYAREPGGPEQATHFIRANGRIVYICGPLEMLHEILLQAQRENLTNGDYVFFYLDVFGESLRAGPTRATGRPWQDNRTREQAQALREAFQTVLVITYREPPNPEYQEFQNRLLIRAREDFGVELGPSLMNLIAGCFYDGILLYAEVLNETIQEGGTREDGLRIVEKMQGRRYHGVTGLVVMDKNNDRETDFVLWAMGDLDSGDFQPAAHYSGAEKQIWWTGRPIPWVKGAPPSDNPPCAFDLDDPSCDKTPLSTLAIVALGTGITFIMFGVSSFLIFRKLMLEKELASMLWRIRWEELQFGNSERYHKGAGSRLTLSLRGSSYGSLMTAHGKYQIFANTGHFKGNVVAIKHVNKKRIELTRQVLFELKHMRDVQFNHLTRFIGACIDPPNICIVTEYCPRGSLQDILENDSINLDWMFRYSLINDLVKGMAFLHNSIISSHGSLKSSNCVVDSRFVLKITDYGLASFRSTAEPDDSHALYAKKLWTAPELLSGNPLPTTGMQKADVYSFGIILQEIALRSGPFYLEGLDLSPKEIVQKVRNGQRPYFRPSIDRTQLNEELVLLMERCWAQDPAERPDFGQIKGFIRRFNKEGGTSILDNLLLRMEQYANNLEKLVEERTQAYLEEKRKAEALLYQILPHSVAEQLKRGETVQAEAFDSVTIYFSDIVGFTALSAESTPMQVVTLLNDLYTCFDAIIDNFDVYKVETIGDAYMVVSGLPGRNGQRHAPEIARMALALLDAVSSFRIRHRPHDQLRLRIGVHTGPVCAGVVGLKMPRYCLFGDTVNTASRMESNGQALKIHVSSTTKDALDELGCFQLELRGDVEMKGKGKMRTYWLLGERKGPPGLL
substance,measurement,value
human CNP (from UniProt P23582 74-126) (peptide),cGMP in HAEC with 10^-6 M CNP in the presence of the NPR-B antibody (1:100),0.08 pmol/mL
same,"cGMP in HAEC with 10^-6 M CNP, no antibody",0.17 pmol/mL

# Reference: US20090054337A1
